These results are taken from article PMC6847465 (Nucleic Acids Research, 2019).

Ends that are not written are not given here. * marks the point of attachment. Biotin = O=C1N[C@H]2[C@H](CS[C@H]2CCCCC(=O)*)N1

The target in the assay is GST–BRCA1–BRCT (UniProt P38398 1582-1863). As to the kind of experiment: pull-down.
GST–BRCA1–BRCT, sequence (P38398 1582-1863): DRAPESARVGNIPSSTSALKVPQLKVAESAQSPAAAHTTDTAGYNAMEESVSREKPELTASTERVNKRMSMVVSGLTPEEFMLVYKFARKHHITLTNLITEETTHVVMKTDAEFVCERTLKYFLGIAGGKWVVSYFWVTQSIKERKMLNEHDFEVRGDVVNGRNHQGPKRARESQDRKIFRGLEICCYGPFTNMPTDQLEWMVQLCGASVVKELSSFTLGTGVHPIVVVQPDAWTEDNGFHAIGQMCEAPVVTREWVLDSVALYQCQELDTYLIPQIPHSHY

Biotin-KHDAIMDGASPDYVLV [biotinylated CSB peptide without S1276 phosphorylation]: the binding result is “binds”.
